Experimental data reported in patent US20230265151A1, “GIP/GLP1 CO-AGONIST COMPOUNDS” (priority 2020, published 2023).

Columns and labels:
human GIP receptor = target: T1, human GIP receptor (human, UniProt P48546 22-466); assay: SPA competition vs [125I]-GIP, hGIPR membranes
T1 construct: whole, on cells; also called hGIPR; human glucose-dependent insulinotropic polypeptide receptor
T1 sequence (looked up): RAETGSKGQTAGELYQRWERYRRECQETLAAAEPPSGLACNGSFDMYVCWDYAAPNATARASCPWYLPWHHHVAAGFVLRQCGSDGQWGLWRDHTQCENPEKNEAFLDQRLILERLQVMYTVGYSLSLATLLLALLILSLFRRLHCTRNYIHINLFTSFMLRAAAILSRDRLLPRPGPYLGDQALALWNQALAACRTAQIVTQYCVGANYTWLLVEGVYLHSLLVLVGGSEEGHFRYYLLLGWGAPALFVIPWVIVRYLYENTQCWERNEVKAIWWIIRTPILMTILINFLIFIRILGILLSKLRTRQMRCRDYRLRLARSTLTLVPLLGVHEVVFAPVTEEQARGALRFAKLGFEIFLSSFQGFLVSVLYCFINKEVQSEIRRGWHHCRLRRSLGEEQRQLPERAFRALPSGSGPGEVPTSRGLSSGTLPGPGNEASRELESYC

human glucagon receptor = target: T2, human glucagon receptor (human, UniProt P47871 26-477); assay: SPA competition vs [125I]-Gcg, hGcgR membranes
T2 construct: whole, on cells; also called hGCGR; hGcgR

human GLP-1 receptor = target: T3, human GLP-1 receptor (human, UniProt P43220 24-463); assay: SPA competition vs [125I]-GLP-1, hGLP-1R membranes
T3 construct: whole, on cells; also called hGLP-1R; human glucagon-like peptide-1 receptor
Summary of the method: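 Competition binding in 25 mM HEPES pH 7.4, 2.5 mM CaCl₂, 1 mM MgCl₂, 0.1% bacitracin, 0.003% TWEEN-20, EDTA-free protease inhibitors. IC₅₀ from four-parameter nonlinear fit; Kᵢ given as geometric mean ± SEM, n = independent replicates on different days.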

T2 sequence (P47871 26-477): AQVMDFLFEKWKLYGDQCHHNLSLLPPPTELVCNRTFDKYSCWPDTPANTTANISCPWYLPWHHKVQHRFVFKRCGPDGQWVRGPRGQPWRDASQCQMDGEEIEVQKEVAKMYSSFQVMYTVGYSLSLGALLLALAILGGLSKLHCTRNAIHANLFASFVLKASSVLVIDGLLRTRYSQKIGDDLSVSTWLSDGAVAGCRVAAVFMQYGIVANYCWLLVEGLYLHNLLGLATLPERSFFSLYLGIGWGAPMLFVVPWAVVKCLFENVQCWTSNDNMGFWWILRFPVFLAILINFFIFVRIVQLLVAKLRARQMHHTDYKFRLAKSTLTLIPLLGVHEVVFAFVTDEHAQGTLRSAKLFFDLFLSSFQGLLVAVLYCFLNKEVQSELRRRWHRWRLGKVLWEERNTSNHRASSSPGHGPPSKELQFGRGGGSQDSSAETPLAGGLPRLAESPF

B1: Y-Aib-EGT-αMeF(2F)-TSD-4Pal-SI-αMeL-LD-Orn-K((2-[2-(2-Amino-ethoxy)-ethoxy]-acetyl)-(γ-Glu)-(10-(4-carboxyphenoxy)decanoyl))AQ-Aib-EFI-(D-Glu)-αMeY-LIEGGK((2-[2 … (peptide)
peptide: YXEGTXTSDXSIXLDXKAQXEFIXXLIEGGKSSGAPPPS
modifications: Aib2, αMeF(2F)6, 4Pal10, αMeL13, Orn16, K17(Z1), Aib20, D-Glu24, αMeY25, K31(Z1), C-term NH2; Z1=AEEA-(γ-Glu)-(10-(4-carboxyphenoxy)decanoyl)
- Ki (human GIP receptor): 57.5 pM
- Ki (human glucagon receptor): 213000 pM
- Ki (human GLP-1 receptor): 638 pM

B2: Y-Aib-EGT-αMeF(2F)-TSD-hY-SI-αMeL-LD-Orn-QAQ-Aib-Orn-FIK((2-[2-(2-Amino-ethoxy)-ethoxy]-acetyl)2-(γ-Glu)-CO-(CH2)12-CO2H)-αMeY-LIK((2-[2-(2-Amino-ethoxy)-ethoxy … (peptide)
peptide: YXEGTXTSDXSIXLDXQAQXXFIKXLIKGGPSSGAPPPS
modifications: Aib2, αMeF(2F)6, hY10 (so in the source), αMeL13, Orn16, Aib20, Orn21, K24(Z1), αMeY25, K28(Z1), C-term NH2; Z1=AEEA2-(γ-Glu)-CO-(CH2)12-CO2H
- Ki (human GIP receptor): 30.1 pM
- Ki (human glucagon receptor): 94400 pM
- Ki (human GLP-1 receptor): 182 pM

B3: Y-Aib-EGT-αMeF(2F)-TSDY-Aib-I-αMeL-LD-Orn-QAQ-Aib-Orn-FIK((2-[2-(2-Amino-ethoxy)-ethoxy]-acetyl)2-(γ-Glu)--C10_4CP)-αMeY-LIK((2-[2-(2-Amino-ethoxy)-ethoxy]-acet … (peptide)
peptide: YXEGTXTSDYXIXLDXQAQXXFIKXLIKGGPSSGAPPPS
modifications: Aib2, αMeF(2F)6, Aib11, αMeL13, Orn16, Aib20, Orn21, K24(Z1), αMeY25, K28(Z1), C-term NH2; Z1=AEEA2-(γ-Glu)-C10_4CP (so in the source)
- Ki (human GIP receptor): 26.4 pM
- Ki (human glucagon receptor): 28600 pM
- Ki (human GLP-1 receptor): 233 pM

B4: Y-Aib-EGT-αMeF(2F)-TSD-4Pal-Aib-I-αMeL-LD-Orn-QAQ-Aib-4Pal-FIK((2-[2-(2-Amino-ethoxy)-ethoxy]-acetyl)2-(γ-Glu)-(10-(4-carboxyphenoxy)decanoyl))-αMeY-LIK((2-[2-( … (peptide)
peptide: YXEGTXTSDXXIXLDXQAQXXFIKXLIKGGPSSGAPPPS
modifications: Aib2, αMeF(2F)6, 4Pal10, Aib11, αMeL13, Orn16, Aib20, 4Pal21, K24(Z1), αMeY25, K28(Z1), C-term NH2; Z1=AEEA2-(γ-Glu)-(10-(4-carboxyphenoxy)decanoyl)
- Ki (human GIP receptor): 34.5 pM
- Ki (human glucagon receptor): 70100 pM
- Ki (human GLP-1 receptor): 250 pM

B5: Y-Aib-EGT-αMeF(2F)-TSD-4Pal-SI-αMeL-LD-Orn-K((2-[2-(2-Amino-ethoxy)-ethoxy]-acetyl)-(γ-Glu)-CO-(CH2)14-CH3)AQ-Aib-EFI-(D-Glu)-αMeY-LIEGGK((2-[2-(2-Amino-ethoxy) … (peptide)
peptide: YXEGTXTSDXSIXLDXKAQXEFIXXLIEGGKSSGAPPPS
modifications: Aib2, αMeF(2F)6, 4Pal10, αMeL13, Orn16, K17(Z1), Aib20, D-Glu24, αMeY25, K31(Z1), C-term NH2; Z1=AEEA-(γ-Glu)-CO-(CH2)14-CH3
- Ki (human GIP receptor): 57.5 pM
- Ki (human glucagon receptor): 987 pM
- Ki (human GLP-1 receptor): 691 pM

B6: Y-Aib-EGT-αMeF(2F)-TSD-4Pal-SI-αMeL-LD-Orn-K((2-[2-(2-Amino-ethoxy)-ethoxy]-acetyl)-(γ-Glu)-CO-(CH2)10-CH3)AQ-Aib-EFI-(D-Glu)-αMeY-LIEGGK((2-[2-(2-Amino-ethoxy) … (peptide)
peptide: YXEGTXTSDXSIXLDXKAQXEFIXXLIEGGKSSGAPPPS
modifications: Aib2, αMeF(2F)6, 4Pal10, αMeL13, Orn16, K17(Z1), Aib20, D-Glu24, αMeY25, K31(Z1), C-term NH2; Z1=AEEA-(γ-Glu)-CO-(CH2)10-CH3
- Ki (human GIP receptor): 36 pM
- Ki (human glucagon receptor): 17600 pM
- Ki (human GLP-1 receptor): 286 pM

B7: Y-Aib-EGT-αMeF(2F)-TSD-4Pal-SI-αMeL-LD-Orn-K((2-[2-(2-Amino-ethoxy)-ethoxy]-acetyl)2-(γ-Glu)-CO-(CH2)14-CH3)AQ-Aib-EFIK((2-[2-(2-Amino-ethoxy)-ethoxy]-acetyl)2- … (peptide)
peptide: YXEGTXTSDXSIXLDXKAQXEFIKXLIEGGPSSGAPPPS
modifications: Aib2, αMeF(2F)6, 4Pal10, αMeL13, Orn16, K17(Z1), Aib20, K24(Z1), αMeY25, C-term NH2; Z1=AEEA2-(γ-Glu)-CO-(CH2)14-CH3
- Ki (human GIP receptor): 21.7 pM
- Ki (human glucagon receptor): 596 pM
- Ki (human GLP-1 receptor): 301 pM

B8: Y-Aib-EGT-αMeF(2F)-TSD-4Pal-SI-αMeL-LD-Orn-K((2-[2-(2-Amino-ethoxy)-ethoxy]-acetyl)2-(γ-Glu)-CO-(CH2)14-CH3)AQ-Aib-EFI-(D-Glu)-αMeY-LIEGGPSSGAPPPSK((2-[2-(2-Ami … (peptide)
peptide: YXEGTXTSDXSIXLDXKAQXEFIXXLIEGGPSSGAPPPSK
modifications: Aib2, αMeF(2F)6, 4Pal10, αMeL13, Orn16, K17(Z1), Aib20, D-Glu24, αMeY25, K40(Z1), C-term NH2; Z1=AEEA2-(γ-Glu)-CO-(CH2)14-CH3
- Ki (human GIP receptor): 29.3 pM
- Ki (human glucagon receptor): 283 pM
- Ki (human GLP-1 receptor): 483 pM

B9: Y-Aib-EGT-αMeF(2F)-TSDK((2-[2-(2-Amino-ethoxy)-ethoxy]-acetyl)2-(γ-Glu)-CO-(CH2)14-CH3)SI-αMeL-LD-Orn-K((2-[2-(2-Amino-ethoxy)-ethoxy]-acetyl)2-(γ-Glu)-CO-(CH2) … (peptide)
peptide: YXEGTXTSDKSIXLDXKAQXEFIXXLIEGGPSSGAPPPS
modifications: Aib2, αMeF(2F)6, K10(Z1), αMeL13, Orn16, K17(Z1), Aib20, D-Glu24, αMeY25, C-term NH2; Z1=AEEA2-(γ-Glu)-CO-(CH2)14-CH3
- Ki (human GIP receptor): 50.5 pM
- Ki (human glucagon receptor): 923 pM
- Ki (human GLP-1 receptor): 412 pM
